The source of these data is US20230303690A1 (published 2023).

Assay [1] deals with T1, human LAG3 expressed on cells (human, UniProt P18627 23-525).
T1 sequence (looked up): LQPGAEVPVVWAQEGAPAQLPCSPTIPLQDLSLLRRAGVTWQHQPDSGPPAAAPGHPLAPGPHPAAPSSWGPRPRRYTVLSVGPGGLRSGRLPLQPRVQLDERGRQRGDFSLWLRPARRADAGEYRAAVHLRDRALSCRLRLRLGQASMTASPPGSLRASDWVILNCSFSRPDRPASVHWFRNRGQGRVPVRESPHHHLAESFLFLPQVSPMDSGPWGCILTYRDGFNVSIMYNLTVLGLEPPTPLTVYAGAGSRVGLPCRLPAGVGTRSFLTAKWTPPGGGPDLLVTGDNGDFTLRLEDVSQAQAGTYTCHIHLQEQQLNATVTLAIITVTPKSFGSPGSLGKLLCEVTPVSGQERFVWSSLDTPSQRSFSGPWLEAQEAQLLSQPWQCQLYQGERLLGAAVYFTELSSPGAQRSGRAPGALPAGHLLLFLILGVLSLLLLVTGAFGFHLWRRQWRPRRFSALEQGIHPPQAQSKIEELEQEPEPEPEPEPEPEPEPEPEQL
Put plainly: cell-based or functional assay.

Assay [2] addresses T1, human LAG3 expressed on cells. Put plainly: FACS, 293T-hLAG3 cells. The protocol:
5) The prepared antibody samples were added to the 96-well plate according to the platemap, the cells were resuspended and incubate at 4° C. for 1 hour.
7) 3% BSA/1xPBS was used to dilute Goat polyclonal Secondary Antibody to Human IgG-Fc (DyLight® 650) to the desired concentration (1:200), in which the cells were resuspended and incubated at 4° C. for 1 hour.
9) The cells were resuspended in 200 µl of 3% BSA/1xPBS, and performed flow cytometric testing by Shsti Biotech Inc.
Background: In flow cytometry, cells or beads pass a laser one at a time.

Assay [3] has as its target T2, LAG3 Protein, Human, Recombinant (His Tag) (Sino Biological Catalog No. 16498-H08H) (human, UniProt P18627 23-450).
T2 construct: Bought protein; also called hLAG3-His; LAG3-His; not shown: His tag
T2 sequence (looked up): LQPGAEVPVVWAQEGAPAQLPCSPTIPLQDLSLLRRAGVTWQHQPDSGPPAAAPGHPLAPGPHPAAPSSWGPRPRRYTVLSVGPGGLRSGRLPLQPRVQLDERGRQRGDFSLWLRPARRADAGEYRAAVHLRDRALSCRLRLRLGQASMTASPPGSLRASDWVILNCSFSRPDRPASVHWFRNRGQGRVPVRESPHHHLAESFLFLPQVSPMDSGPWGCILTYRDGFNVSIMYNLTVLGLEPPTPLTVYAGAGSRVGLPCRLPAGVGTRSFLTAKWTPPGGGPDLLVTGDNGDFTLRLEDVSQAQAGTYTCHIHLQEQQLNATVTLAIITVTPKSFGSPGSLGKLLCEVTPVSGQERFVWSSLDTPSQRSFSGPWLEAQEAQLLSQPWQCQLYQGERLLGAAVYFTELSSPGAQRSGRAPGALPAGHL
Put plainly: ELISA, coated hLAG3-His. How it is done:
(§1) Plates were coated with 100 µL per well of Coating Solution, and then covered, and incubated overnight (12-18 hours) at 2-8° C. The wells were aspirated and washed 1 time with >200 µL of Wash buffer per well, inverted and tapped on absorbent paper to remove excess liquid. The plates were blocked with 200 µL per well with Blocking buffer (1×PBS+4% milk) for 1 hour at room temperature, aspirated, inverted, and tapped on absorbent paper to remove excess liquid. Standards and sample dilutions were prepared in Blocking buffer. 100 µL of standards (in duplicate) and samples were pipetted into designated wells. After incubation for 1 hour at room temperature with gentle continual shaking (~500 rpm), the wells were aspirate and washed 3 times with >200 µL of Wash buffer per well, inverted and tapped on absorbent paper to remove excess liquid.
(§2) The primary antibody solution was diluted with Blocking buffer. See Table 14 for recommended primary antibody dilution. 100 µL of the primary antibody solution was added into each well and incubated for 2 hours at room temperature with gentle continual shaking (~500 rpm). The wells were aspirated and washed 3 times with >200 µL of Wash buffer per well, inverted and tapped on absorbent paper to remove excess liquid. The working solution of secondary antibody was made with Blocking buffer by diluting the secondary antibody by 2,500 times. 100 µL of secondary antibody working solution was added into each well and incubated for 30 minutes at room temperature. The wells were aspirated and washed 5 times with >200 µL of Wash buffer per well, inverted and tapped on absorbent paper to remove excess liquid. 100 µL of TMB substrate solution (Biopanda, TMB-S-004) was added to each well and incubated for 30 minutes at room temperature. 100 µL of Stop solution (Solarbio, C1058) was added to each well. Absorbance at 450 nm was measured within 30 minutes of adding Stop solution. Results were calculated using a log-log or 4-parameter curve fit.
Background: In an ELISA, binding on a coated surface is turned into a signal by an enzyme label.

For assay [4], the target named is T2, LAG3 Protein, Human, Recombinant (His …). Put plainly: ELISA, coated hLAG3-His. The protocol: as §1
as §2, with “well.” for “well. Absorbance at 450 nm was measured within 30 minutes of adding Stop solution. Results were calculated using a log-log or 4-parameter curve fit.”
The source holds these as a separate data set.

Read-outs that look alike come from different tables or passages of the source.

B1: sdAb No. 25 (VHH)
VHH: QLQLVESGGGLVQAGGSLRLSCAASGSIESFSFMGWYRQAPGKQRELVAGFTGAASLSFSTYTDAVKGRFTISRDNAKNTVYLQMNSLKPEDTAVYFCNVDPWSQSWPGRYWGQGTQVTVSS
notes: Fc of the tested form not described; also called sdAb 25; sdAb #25; not shown: Fc part implied by anti-human Fc capture and anti-human IgG Fc detection
In the case of B1, in assay [1], the “IL-2, % of BMS, at 0.005080526 ug/mL” value is 3.24%; the “IL-2, % of BMS, at 0.015241579 ug/mL” value was -0.59%; the “IL-2, % of BMS, at 0.045724737 ug/mL” value turned out to be 8.03%; the “IL-2, % of BMS, at 0.137174211 ug/mL” value stood at 2.39%. In addition, in assay [1], the “IL-2, % of BMS, at 0.411522634 ug/mL” value worked out at 9.2%; the “IL-2, % of BMS, at 1.234567901 ug/mL” value stood at 25.1%; the “IL-2, % of BMS, at 3.703703704 ug/mL” value was 30.6%; the “IL-2, % of BMS, at 11.11111111 ug/mL” value was found to be 34.1%. For the same molecule, in assay [1], the “IL-2, % of BMS, at 33.33333333 ug/mL” value was determined as 39.8% and the “IL-2, % of BMS, at 100 ug/mL” value is 53.7%. Moreover, in assay [2], the EC50 (in general, the concentration needed to bring the measured effect to its halfway point) was 1.48 nM; the “FACS signal at 0.061 nM” value worked out at 99.2; the “FACS signal at 0.1829 nM” value was 247; the “FACS signal at 0.5487 nM” value is 618. Also, in assay [2], the “FACS signal at 1.6461 nM” value turned out to be 1410, the “FACS signal at 4.9383 nM” value is 2000, the “FACS signal at 14.815 nM” value came to 2280 and the “FACS signal at 44.445 nM” value worked out at 2540. The “FACS signal at 133.335 nM” value in assay [2] is 2580. In assay [3], the EC50 was 3.45 nM, the “OD450 at 0.061 nM” value worked out at 0.037, the “OD450 at 0.1829 nM” value came out at 0.042 and the “OD450 at 0.5487 nM” value was found to be 0.06. Further, in assay [3], the “OD450 at 1.6461 nM” value amounted to 0.233, the “OD450 at 4.9383 nM” value was determined as 0.643, the “OD450 at 14.815 nM” value came to 0.85 and the “OD450 at 44.445 nM” value was 0.882. In addition, in assay [3], the “OD450 at 133.335 nM” value is 1.02.

B2: sdAb No. 27 (VHH)
VHH: QVQLVESGGGLVQPGGSLRLSCAASGFTLDYYAIGWFRQAPGKEREGVSCIRSSDGSTYYADSVKGRFTISSDNTKNTVYLQMNSLKPEDTAVYYCATDRYSDCRGPYENWGQGTQVTVSS
notes: Fc of the tested form not described; also called sdAb 27; not shown: Fc part implied by anti-human Fc capture and anti-human IgG Fc detection
Take B2: in assay [1], the “IL-2, % of BMS, at 0.005080526 ug/mL” value came to 5.57%; the “IL-2, % of BMS, at 0.015241579 ug/mL” value stood at 13.4%; the “IL-2, % of BMS, at 0.045724737 ug/mL” value is 12.1%; the “IL-2, % of BMS, at 0.137174211 ug/mL” value came to 18%. Moreover, in assay [1], the “IL-2, % of BMS, at 0.411522634 ug/mL” value stood at 27.3%; the “IL-2, % of BMS, at 1.234567901 ug/mL” value came to 36.5%; the “IL-2, % of BMS, at 3.703703704 ug/mL” value came to 43.4%; the “IL-2, % of BMS, at 11.11111111 ug/mL” value came out at 50%. Moreover, in assay [1], the “IL-2, % of BMS, at 33.33333333 ug/mL” value was 52.9% and the “IL-2, % of BMS, at 100 ug/mL” value amounted to 52.8%. For the same molecule, in assay [2], a half-maximal effect (EC50) was put at 1.77 nM, the “FACS signal at 0.061 nM” value came to 163, the “FACS signal at 0.1829 nM” value is 393 and the “FACS signal at 0.5487 nM” value stood at 1010. Besides, in assay [2], the “FACS signal at 1.6461 nM” value amounted to 2240, the “FACS signal at 4.9383 nM” value turned out to be 3570, the “FACS signal at 14.815 nM” value was found to be 4130 and the “FACS signal at 44.445 nM” value stood at 4490. The “FACS signal at 133.335 nM” value in assay [2] came out at 4630. For the same molecule, in assay [4], the EC50 was 3.14 nM, the “OD450 at 0.004572 ug/ml” value was found to be 0.039, the “OD450 at 0.013717 ug/ml” value came to 0.042 and the “OD450 at 0.041152 ug/ml” value was 0.063. Moreover, in assay [4], the “OD450 at 0.123457 ug/ml” value was found to be 0.331, the “OD450 at 0.37037 ug/ml” value came out at 1.5, the “OD450 at 1.111111 ug/ml” value amounted to 1.84 and the “OD450 at 3.333333 ug/ml” value is 1.77. Besides, the “OD450 at 10 ug/ml” value in assay [4] was 2.15. Also, in assay [3], the EC50 amounted to 4.7 nM, the “OD450 at 0.061 nM” value was 0.037, the “OD450 at 0.1829 nM” value is 0.042 and the “OD450 at 0.5487 nM” value came out at 0.059. For the same molecule, in assay [3], the “OD450 at 1.6461 nM” value was determined as 0.257, the “OD450 at 4.9383 nM” value was found to be 1.04, the “OD450 at 14.815 nM” value was 1.57 and the “OD450 at 44.445 nM” value was found to be 1.77. Moreover, in assay [3], the “OD450 at 133.335 nM” value was 1.95.

B3: sdAb No. 17 (VHH)
VHH: QLQLVESGGGLVQPGGSLRLSCAASGLTLDGYAIGWFRQAPGKEREGLACISGSDGSTHYLDSVKGRFTISRDNGKNTMALQMNSLQFGDTAIYYCAARRGSCSGSWTYWGQGTQVTVSS
notes: Fc of the tested form not described; also called sdAb 17; not shown: Fc part implied by anti-human Fc capture and anti-human IgG1 Fc detection
For B3, the concentration giving a half-maximal response (EC50) in assay [4] is 2.17 nM.
